Experiments:
[1] = tested on: T1, PKC (Protein Kinase C) matrix AAKIQASFRGHMARKK
T1 sequence: AAKIQASFRGHMARKK

[2] = tested on: recombinant Mep45-kinase matrix fusion protein (PKC matrix)
[3] = target: BSA (Bovine Serum Albumin) (UniProt P02769)
[4] = tested on: T2, cdc2-PK (cdc2 Protein Kinase) matrix PKTPKKAKKL
T2 sequence: PKTPKKAKKL

[5] = tested on: recombinant Mep45-kinase matrix fusion protein (cdc2-PK matrix)

Sequence of BSA (Bovine Serum Albumin) (P02769 25-607): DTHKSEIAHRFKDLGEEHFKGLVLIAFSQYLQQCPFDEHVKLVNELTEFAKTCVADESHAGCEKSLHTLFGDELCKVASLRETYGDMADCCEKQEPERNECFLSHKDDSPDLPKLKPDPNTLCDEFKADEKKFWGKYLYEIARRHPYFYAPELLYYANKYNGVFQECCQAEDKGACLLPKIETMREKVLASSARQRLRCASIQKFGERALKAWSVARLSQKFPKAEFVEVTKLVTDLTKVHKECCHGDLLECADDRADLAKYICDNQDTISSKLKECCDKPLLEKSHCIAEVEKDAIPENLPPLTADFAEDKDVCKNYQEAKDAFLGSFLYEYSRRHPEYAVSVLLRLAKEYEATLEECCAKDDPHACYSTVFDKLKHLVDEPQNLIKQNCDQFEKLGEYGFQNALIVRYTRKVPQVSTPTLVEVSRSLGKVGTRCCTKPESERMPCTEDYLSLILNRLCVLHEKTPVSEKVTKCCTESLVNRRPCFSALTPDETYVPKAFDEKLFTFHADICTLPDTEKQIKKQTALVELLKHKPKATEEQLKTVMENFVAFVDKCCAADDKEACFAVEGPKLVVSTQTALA

PKC (Protein Kinase C)
phosphorylation on chip with [gamma-32P]ATP, X-ray film or X-ray fluorescence spectrometer [1]: clear signal was detected on the spot of AAKIQASFRGHMARKK matrix (FIG. 5A) | phosphorylation on chip with [gamma-32P]ATP, X-ray film or X-ray fluorescence spectrometer [2]: clear signal was detected on the spot of ... Mep45 fusion matrix (FIG. 5B) | phosphorylation on chip with [gamma-32P]ATP, X-ray film or X-ray fluorescence spectrometer [3]: no signal was detected on the spot of BSA (negative control)

cdc2 protein kinase
phosphorylation on chip with [gamma-32P]ATP, X-ray film or X-ray fluorescence spectrometer [4]: clear signal was detected on the spot of PKTPKKAKKL matrix (FIG. 4A) | phosphorylation on chip with [gamma-32P]ATP, X-ray film or X-ray fluorescence spectrometer [3]: no signal was detected on the spot of BSA (negative control) | phosphorylation on chip with [gamma-32P]ATP, X-ray film or X-ray fluorescence spectrometer [5]: clear signal was detected on the spot of ... Mep45 fusion matrix (FIG. 4B)
